Test results: the supplement of paper PMC11246515
± gives the standard deviation of the averaged measurements.

Assay: total protein half-life in vivo (active degradation + dilution); higher = more stable protein
[1] = E. coli NCM3722 delta-clpP delta-lon delta-hslV, growth: N-lim chemostat, doubling time 6 h
[2] = E. coli NCM3722 delta-clpP, growth: N-lim chemostat, doubling time 6 h
[3] = E. coli NCM3722 delta-hslV, growth: N-lim chemostat, doubling time 6 h
[4] = E. coli NCM3722 delta-lon, growth: N-lim chemostat, doubling time 6 h
[5] = E. coli NCM3722 delta-smpB, growth: N-lim chemostat, doubling time 6 h
[6] = wild type E. coli NCM3722, growth: C-lim chemostat, doubling time 12 h
[7] = wild type E. coli NCM3722, growth: N-lim chemostat, doubling time 6 h
[8] = wild type E. coli NCM3722, growth: N-lim chemostat, doubling time 12 h
[9] = wild type E. coli NCM3722, growth: P-lim chemostat, doubling time 6 h
[10] = wild type E. coli NCM3722, growth: P-lim chemostat, doubling time 12 h
[11] = wild type E. coli NCM3722, growth: C-lim chemostat, doubling time 3 h

With “MRNLVKYVGIGLLVMGLAACDDKDTNATAQGSVAESNATGNPVNLLDGKLSFSLPADMTDQSGKLGTQANNMHVWSDATGQKAVIVIMGDDPKEDLAVLAKRLEDQQRSRDPQLQVVTNKAIELKGHKMQQLDSIISAKGQTAYSSVILGNVGNQLLTMQITLPADDQQKAQTTAENIINTLVIQ [P0AEE1]” as the sequence, how does the “total protein half-life in vivo” value [1] read?
Its value is 6.11 ± 1.1 h.

What about the “total protein half-life in vivo” value [2] of the same sequence?
Its value is 5.96 ± 0.21 h.

And the “total protein half-life in vivo” value [3]?
Its value is 5.42 ± 0.085 h.

What about the “total protein half-life in vivo” value [4] of the same sequence?
The value was 6.24 ± 0.22 h.

And the “total protein half-life in vivo” value [5]?
The value was 6.05 ± 1.3 h.

What about the “total protein half-life in vivo” value [6] of the same sequence?
The value was 11.3 ± 1 h.

And the “total protein half-life in vivo” value [7]?
The value was 5.6 ± 0.16 h.

What about the “total protein half-life in vivo” value [8] of the same sequence?
The value was 10.9 ± 0.59 h.

And the “total protein half-life in vivo” value [9]?
The value was 5.55 ± 1.2 h.

What about the “total protein half-life in vivo” value [10] of the same sequence?
The value was 10.9 ± 0.47 h.

For “MKAILIPFLSLLIPLTPQSAFAQSEPELKLESVVIVSRHGVRAPTKATQLMQDVTPDAWPTWPVKLGWLTPRGGELIAYLGHYQRQRLVADGLLAKKGCPQSGQVAIIADVDERTRKTGEAFAAGLAPDCAITVHTQADTSSPDPLFNPLKTGVCQLDNANVTDAILSRAGGSIADFTGHRQTAFRELERVLNFPQSNLCLKREKQDESCSLTQALPSELKVSADNVSLTGAVSLASMLTEIFLLQQAQGMPEPGWGRITDSHQWNTLLSLHNAQFYLLQRTPEVARSRATPLLDLIKTALTPHPPQKQAYGVTLPTSVLFIAGHDTNLANLGGALELNWTLPGQPDNTPPGGELVFERWRRLSDNSQWIQVSLVFQTLQQMRDKTPLSLNTPPGEVKLTLAGCEERNAQGMCSLAGFTQIVNEARIPACSL”, which “total protein half-life in vivo” value [1] is on record?
The value was 5.24 ± 0.47 h.

What about the “total protein half-life in vivo” value [2] of the same sequence?
The value was 5.26 ± 0.056 h.

And the “total protein half-life in vivo” value [3]?
The value was 6.56 ± 0.62 h.

And the “total protein half-life in vivo” value [4]?
Its value is 6.26 ± 0.8 h.

And the “total protein half-life in vivo” value [5]?
The value was 5.84 ± 0.11 h.

What about the “total protein half-life in vivo” value [11] of the same sequence?
The value was 3.02 ± 0.21 h.

What about the “total protein half-life in vivo” value [6] of the same sequence?
The value was 11.6 ± 0.68 h.

And the “total protein half-life in vivo” value [7]?
The value was 5.94 ± 0.28 h.

What about the “total protein half-life in vivo” value [8] of the same sequence?
Its value is 12.6 ± 0.49 h.

And the “total protein half-life in vivo” value [9]?
The value was 5.7 ± 0.15 h.

And the “total protein half-life in vivo” value [10]?
Its value is 11.9 ± 0.49 h.

Which results are given for “MEPLREIRNRLLNGWQLSKMHTFEVAARHQSFALAAEELSLSPSAVSHRINQLEEELGIQLFVRSHRKVELTHEGKRVYWALKSSLDTLNQEILDIKNQELSGTLTLYSRPSIAQCWLVPALGDFTRRYPSISLTVLTGNDNVNLQRAGIDLAIYFDDAPSAQLTHHFLMDEEILPVCSPEYAQRHALTNTVINLCHCTLLHDRQAWSNDSGTDEWHSWAQHYAVNLPTSSGIGFDRSDLAVIAAMNHIGVAMGRKRLVQKRLASGELVAPFGDMTVKCHQHYYITTLPGRQWPKIEAFIIWLREQVKTTS”?
total protein half-life in vivo [1]: 5.88 h; total protein half-life in vivo [2]: 5.73 ± 0.3 h; total protein half-life in vivo [3]: 6.65 ± 0.47 h; total protein half-life in vivo [4]: 7.48 ± 0.075 h; total protein half-life in vivo [5]: 6.21 ± 1.6 h; total protein half-life in vivo [11]: 2.74 h; total protein half-life in vivo [6]: 11 ± 1.1 h; total protein half-life in vivo [7]: 5.13 h

With “MNKYQAVIIGFGKAGKTLAVTLAKAGWRVALIEQSNAMYGGTCINIGCIPTKTLVHDAQQHTDFVRAIQRKNEVVNFLRNKNFHNLADMPNIDVIDGQAEFINNHSLRVHRPEGNLEIHGEKIFINTGAQTVVPPIPGITTTPGVYDSTGLLNLKELPGHLGILGGGYIGVEFASMFANFGSKVTILEAASLFLPREDRDIADNIATILRDQGVDIILNAHVERISHHENQVQVHSEHAQLAVDALLIASGRQPATASLHPENAGIAVNERGAIVVDKRLHTTADNIWAMGDVTGGLQFTYISLDDYRIVRDELLGEGKRSTDDRKNVPYSVFMTPPLSRVGMTEEQARESGADIQVVTLPVAAIPRARVMNDTRGVLKAIVDNKTQRMLGASLLCVDSHEMINIVKMVMDAGLPYSILRDQIFTHPSMSESLNDLFSLVK” as the sequence, how does the “total protein half-life in vivo” value [1] read?
Its value is 5.58 ± 0.12 h.

And the “total protein half-life in vivo” value [2]?
The value was 4.727 ± 0.039 h.

And the “total protein half-life in vivo” value [3]?
Its value is 4.73 ± 0.26 h.

And the “total protein half-life in vivo” value [4]?
Its value is 5.53 ± 0.24 h.

What about the “total protein half-life in vivo” value [5] of the same sequence?
Its value is 4.9 ± 0.99 h.

What about the “total protein half-life in vivo” value [11] of the same sequence?
Its value is 3.31 ± 0.05 h.

And the “total protein half-life in vivo” value [6]?
Its value is 10.4 ± 1 h.

And the “total protein half-life in vivo” value [7]?
Its value is 4.71 ± 0.29 h.

And the “total protein half-life in vivo” value [8]?
Its value is 8.5 ± 0.62 h.

What about the “total protein half-life in vivo” value [9] of the same sequence?
Its value is 6 ± 0.4 h.

And the “total protein half-life in vivo” value [10]?
Its value is 12 ± 1.2 h.

For “MSKQSQHVLIALPHPLLHLVSLGLVSFIFTLFSLELSQFGTQLAPLWFPTSIMMVAFYRHAGRMWPGIALSCSLGNIAASILLFSTSSLNMTWTTINIVEAVVGAVLLRKLLPWYNPLQNLADWLRLALGSAIVPPLLGGVLVVLLTPGDDPLRAFLIWVLSESIGALALVPLGLLFKPHYLLRHRNPRLLFESLLTLAITLTLSWLSMLYLPWPFTFIIVLLMWSAVRLPRMEAFLIFLTTVMMVSLMMAADPSLLATPRTYLMSHMPWLPFLLILLPANIMTMVMYAFRAERKHISESETHFRNAMEYSAIGMALVGTEGQWLQTNKALCQFLGYSQEELRGLTFQQLTWPEDLNKDLQQVEKLISGEINTYSMEKRYYNRNGDVVWALLAVSLVRHTDGTPLYFIAQIEDINELKRTEQVNQQLMERITLANEAGGIGIWEWELKPNIFSWDKRMFELYEIPPHIKPNWQVWYECVLPEDRQHAEKVIRDSLQSRSPFKLEFRITVKDGIRHIRALANRVLNKEGEVERLLGINMDMTEVKQLNEALFQEKERLHITLDSIGEAVVCIDMAMKITFMNPVAEKMSGWTQEEALGVPLLTVLHITFGDNGPLMENIYSADTSRSAIEQDVVLHCRSGGSYDVHYSITPLSTLDGSNIGSVLVIQDVTESRKMLRQLSYSASHDALTHLANRASFEKQLRILLQTVNSTHQRHALVFIDLDRFKAVNDSAGHAAGDALLRELASLMLSMLRSSDVLARLGGDEFGLLLPDCNVESARFIATRIISAVNDYHFIWEGRVHRVGASAGITLIDDNNHQAAEVMSQADIACYASKNGGRGRVTVYEPQQAAAHSERAAMSLDEQWRMIKENQLMMLAHGVASPRIPEARNLWLISLKLWSCEGEIIDEQTFRRSFSDPALSHALDRRVFHEFFQQAAKAVASKGISISLPLSVAGLSSATLVNDLLEQLENSPLPPRLLHLIIPAEAILDHAESVQKLRLAGCRIVLSQVGRDLQIFNSLKANMADYLLLDGELCANVQGNLMDEMLITIIQGHAQRLGMKTIAGPVVLPLVMDTLSGIGVDLIYGEVIADAQPLDLLVNSSYFAIN”, which “total protein half-life in vivo” value [1] is on record?
Its value is 4.93 ± 0.2 h.

And the “total protein half-life in vivo” value [6]?
The value was 9.36 h.

What about the “total protein half-life in vivo” value [9] of the same sequence?
Its value is 1.53 h.

For “MKVGFIGLGIMGKPMSKNLLKAGYSLVVADRNPEAIADVIAAGAETASTAKAIAEQCDVIITMLPNSPHVKEVALGENGIIEGAKPGTVLIDMSSIAPLASREISEALKAKGIDMLDAPVSGGEPKAIDGTLSVMVGGDKAIFDKYYDLMKAMAGSVVHTGEIGAGNVTKLANQVIVALNIAAMSEALTLATKAGVNPDLVYQAIRGGLAGSTVLDAKAPMVMDRNFKPGFRIDLHIKDLANALDTSHGVGAQLPLTAAVMEMMQALRADGLGTADHSALACYYEKLAKVEVTR [P0ABQ2]”, which “total protein half-life in vivo” value [1] is on record?
Its value is 3.86 ± 0.51 h.

What about the “total protein half-life in vivo” value [2] of the same sequence?
Its value is 3.02 ± 0.079 h.

And the “total protein half-life in vivo” value [3]?
The value was 3.5 ± 0.65 h.

What about the “total protein half-life in vivo” value [4] of the same sequence?
Its value is 3.57 ± 0.23 h.

What about the “total protein half-life in vivo” value [5] of the same sequence?
Its value is 2.9 ± 0.15 h.

What about the “total protein half-life in vivo” value [11] of the same sequence?
Its value is 2.9 ± 0.065 h.

What about the “total protein half-life in vivo” value (wild type E. coli NCM3722, growth: C-lim chemostat, doubling time 6 h) of the same sequence?
The value was 5.47 ± 0.28 h.

And the “total protein half-life in vivo” value [6]?
The value was 9.56 ± 1 h.

And the “total protein half-life in vivo” value [7]?
Its value is 3.13 ± 0.46 h.

What about the “total protein half-life in vivo” value [8] of the same sequence?
Its value is 4.13 ± 0.28 h.

What about the “total protein half-life in vivo” value [9] of the same sequence?
The value was 5.31 ± 0.075 h.

And the “total protein half-life in vivo” value [10]?
The value was 10.3 ± 0.15 h.
